# In patent US20240287501A1 (VIB VZW, published 2024):
# T1: SIS1 (native, from EBY100 lysate) (Saccharomyces cerevisiae, UniProt P25294 1-352)
# T1 construct: mature; Endogenous untagged protein; also called YNL007C
# T1 sequence (looked up): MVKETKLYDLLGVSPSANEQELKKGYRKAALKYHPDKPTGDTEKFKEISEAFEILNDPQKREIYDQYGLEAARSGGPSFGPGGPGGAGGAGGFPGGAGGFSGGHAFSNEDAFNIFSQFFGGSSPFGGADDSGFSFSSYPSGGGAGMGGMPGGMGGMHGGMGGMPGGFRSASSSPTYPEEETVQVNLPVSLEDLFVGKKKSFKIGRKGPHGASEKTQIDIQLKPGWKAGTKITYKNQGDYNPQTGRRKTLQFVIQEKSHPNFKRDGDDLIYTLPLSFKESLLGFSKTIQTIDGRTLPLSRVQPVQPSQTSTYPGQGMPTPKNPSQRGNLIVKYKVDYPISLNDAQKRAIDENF
# T2: GFP-tagged SIS1 (Saccharomyces cerevisiae, UniProt P25294 1-352)
# T2 construct: Yeast GFP Fusion Collection strain; also called Yeast GFP fusion collection GFP(+)22, E5; not shown: GFP tag
# T2 sequence (looked up): T1 sequence (looked up)
# T3: SXM1 (native, from EBY100 lysate) (Saccharomyces cerevisiae, UniProt Q04175 1-944)
# T3 construct: mature; Endogenous untagged protein; also called YDR395W
# T3 sequence (looked up): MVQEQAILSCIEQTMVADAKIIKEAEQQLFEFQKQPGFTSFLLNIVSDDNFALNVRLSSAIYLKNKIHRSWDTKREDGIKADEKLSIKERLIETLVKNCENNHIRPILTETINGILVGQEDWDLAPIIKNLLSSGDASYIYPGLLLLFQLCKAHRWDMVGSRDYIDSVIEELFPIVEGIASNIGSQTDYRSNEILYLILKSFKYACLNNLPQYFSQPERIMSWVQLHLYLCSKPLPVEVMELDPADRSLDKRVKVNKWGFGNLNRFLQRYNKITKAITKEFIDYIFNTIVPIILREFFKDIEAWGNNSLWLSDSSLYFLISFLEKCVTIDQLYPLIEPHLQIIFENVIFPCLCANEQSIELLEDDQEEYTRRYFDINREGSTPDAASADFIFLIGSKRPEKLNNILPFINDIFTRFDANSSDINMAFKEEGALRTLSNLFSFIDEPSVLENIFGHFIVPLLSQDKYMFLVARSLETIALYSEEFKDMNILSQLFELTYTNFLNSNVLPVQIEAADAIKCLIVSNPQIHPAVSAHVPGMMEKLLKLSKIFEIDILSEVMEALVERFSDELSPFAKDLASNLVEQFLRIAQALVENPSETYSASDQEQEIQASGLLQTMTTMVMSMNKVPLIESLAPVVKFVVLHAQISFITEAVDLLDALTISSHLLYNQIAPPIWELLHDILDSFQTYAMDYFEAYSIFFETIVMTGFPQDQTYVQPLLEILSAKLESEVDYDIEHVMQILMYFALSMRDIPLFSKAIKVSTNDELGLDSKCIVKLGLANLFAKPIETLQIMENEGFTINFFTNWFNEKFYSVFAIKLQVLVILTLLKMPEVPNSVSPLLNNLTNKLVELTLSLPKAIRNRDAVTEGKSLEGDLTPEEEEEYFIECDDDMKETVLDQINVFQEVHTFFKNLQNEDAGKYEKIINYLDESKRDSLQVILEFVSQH
# T4: GFP-tagged SXM1 (Saccharomyces cerevisiae, UniProt Q04175 1-944)
# T4 construct: Yeast GFP Fusion Collection strain; also called Yeast GFP fusion collection GFP(+)04, H9; not shown: GFP tag
# T4 sequence (looked up): T3 sequence (looked up)
# T5: Rat Vesicular GLUtamate Transporter 1 (full-length, HEK293T lysate of Example 7) (rat, UniProt Q62634 1-560)
# T5 construct: mature; Produced in HEK293T cells as published (Schenck et al., 2017), solubilised in DDM; also called rVGLUT1; rat VGLUT1
# T5 sequence (looked up): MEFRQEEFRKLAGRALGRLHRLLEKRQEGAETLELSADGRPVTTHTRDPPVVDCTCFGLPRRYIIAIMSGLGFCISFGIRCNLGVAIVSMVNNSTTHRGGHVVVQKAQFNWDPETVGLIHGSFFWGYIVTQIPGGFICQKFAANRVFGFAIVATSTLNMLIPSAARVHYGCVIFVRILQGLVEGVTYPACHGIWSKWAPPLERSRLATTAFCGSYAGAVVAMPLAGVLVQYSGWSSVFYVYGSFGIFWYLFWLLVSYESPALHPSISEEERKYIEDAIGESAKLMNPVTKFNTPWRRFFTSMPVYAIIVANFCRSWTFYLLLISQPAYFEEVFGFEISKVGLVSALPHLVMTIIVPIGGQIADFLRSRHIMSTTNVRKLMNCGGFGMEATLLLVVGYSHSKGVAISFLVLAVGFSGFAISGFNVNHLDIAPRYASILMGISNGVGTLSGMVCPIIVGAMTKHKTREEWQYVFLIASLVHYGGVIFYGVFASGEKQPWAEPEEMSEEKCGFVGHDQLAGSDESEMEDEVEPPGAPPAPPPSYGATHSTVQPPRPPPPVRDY
# T6: BMH1 (native, from EBY100 lysate) (Saccharomyces cerevisiae, UniProt P29311 2-267)
# T6 construct: mature; Endogenous untagged protein; also called YER177W
# T6 sequence (looked up): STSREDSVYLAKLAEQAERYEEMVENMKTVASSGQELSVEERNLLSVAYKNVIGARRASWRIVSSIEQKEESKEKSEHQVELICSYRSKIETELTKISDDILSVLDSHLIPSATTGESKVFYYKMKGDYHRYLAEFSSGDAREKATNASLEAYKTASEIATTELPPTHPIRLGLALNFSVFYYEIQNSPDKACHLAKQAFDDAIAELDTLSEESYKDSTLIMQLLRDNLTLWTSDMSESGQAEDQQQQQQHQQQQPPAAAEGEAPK
# T7: GFP-tagged BMH1 (Saccharomyces cerevisiae, UniProt P29311 2-267)
# T7 construct: Yeast GFP Fusion Collection strain; also called Yeast GFP fusion collection GFP(+)27, D5; not shown: GFP tag
# T7 sequence (looked up): T6 sequence (looked up)
# B1: CA17444 (VHH)
# VHH: QVQLVESGGGLVQPGGSLRLSCAASGFTLDYYAIGWFRQAPGKEREGVSCISSSDGSTVYADSVKGRFTISRDNAKNTVYLQMSNLKPEDTAVYYCATDQITSTGCPDFDSWGQGTQVTVSS
# notes: C-terminal 6xHis-EPEA tag is part of the entry
# B2: CA17530 (VHH)
# VHH: QVQLVESGGGLVQTGGSLRLSCVVSKTLFSINAMAWYRQSPGKPRELVAGWTSGGRTSYGDSVKGRFTISRDNAENTLYLQMNDVKPEDTAVYHCAADYLVVAGKPGYDYAYWGQGTQVTVSS
# notes: as for B1
# B3: CA17875 (VHH)
# VHH: QVQLQESGGGLVQAGGSLRLSCAASGRSVRTWSMGWFRQPPGKERELVAGISWSGSGTYHADSVKGRFTISRDNAKNMVYLQMNSLKPEDTAVYYCAAGQTGWNPGSDFHRWGKGTQVTVSS
# notes: C-terminal 6xHis-EPEA tag is part of the entry; also called rVGLUT1-specific trapper/stripper
# B4: CA17459 (VHH)
# VHH: QVQLVESGGGEVQTGGSLRLSCTASGSRLNFGSWNWYRKRGENYRELVAAMGPSTGHTHYGDSMKGRVTISLNAAKDTLFLQMNSLKPEDTAVYYCAADLDGLGFPRGSFYGMDYWGKGTQVTVSS
# notes: as for B1
# Experiments:
# [1] = target: T1, SIS1 (native, from EBY100 lysate); assay: co-IP, Nb on NHS-agarose beads, EBY100 yeast lysate, SDS-PAGE
# GFP-tagged SIS1 = target: T2, GFP-tagged SIS1; assay: co-immunoprecipitation, Nb coupled to NHS-agarose beads, lysate of the yeast strain expressing the GFP-tagged target, Western blot anti-GFP
# Method: One SIS1-specific Nanobody (44=Nb clone CA17444 corresponding to SEQ ID NO: 9), three ALD6-specific Nanobodies (53=CA17453-SEQ ID NO: 10, 54=CA17454-SEQ ID NO: 11, 60=CA17460-SEQ ID NO: 12), two BMH1-specific Nanobodies (58=CA17458-SEQ ID NO: 13, 59=CA17459-SEQ ID NO: 14) were characterized by co-immunoprecipitation assays. Each target-specific Nanobodies was covalently linked to NHS-agarose beads. The beads that were functionalized with these target-specific Nanobodies were incubated for an hour at 4° C. on a rotating device with either an EBY100 lysate or the lysate of the engineered Yeast strain expressing the target (Yeast GFP fusion collection reference for SIS1: GFP(+)22, E5, for ALD6: GFP(+)15, F1, for BMH1: GFP(+)27, D5) as a GFP-tagged protein. After washing, these beads were resuspended in SDS-PAGE loading dye and analyzed on SDS-PAGE (FIG. 8A). Separated proteins were transferred to a PVDF membrane and the Western blot (FIG. 8B) was developed with GFP-specific antibody to confirm the presence of GFP-tagged targets.
# [2] = target: T3, SXM1 (native, from EBY100 lysate); assay: co-IP, Nb on NHS-agarose beads, EBY100 yeast lysate, SDS-PAGE
# GFP-tagged SXM1 = target: T4, GFP-tagged SXM1; assay: co-immunoprecipitation, Nb coupled to NHS-agarose beads, lysate of the yeast strain expressing the GFP-tagged target, Western blot anti-GFP
# Method: One SXM1-specific Nanobody (30=Nb clone CA17530 corresponding to SEQ ID NO: 18) was characterized by co-immunoprecipitation assays. The SXM1-specific Nanobody was covalently linked to NHS-agarose beads. The beads that were functionalized with this SXM1-specific Nanobody were incubated for an hour at 4° C. on a rotating device with either an EBY100 lysate or the lysate of the engineered Yeast strain expressing SXM1 GFP(+)04, H9) as a GFP-tagged protein. After washing, these beads were resuspended in SDS-PAGE loading dye and analyzed on SDS-PAGE (FIG. 9A). Separated proteins were transferred to a PVDF membrane and the Western blot (FIG. 9B) was developed with GFP-specific antibody to confirm the presence of GFP-tagged SXM1.
# [3] = target: T5, Rat Vesicular GLUtamate Transporter 1 …; assay: NANEX: capture from DDM lysate of HEK293T cells, elution with the same Nb
# [4] = target: T6, BMH1 (native, from EBY100 lysate); assay: co-IP, Nb on NHS-agarose beads, EBY100 yeast lysate, SDS-PAGE
# GFP-tagged BMH1 = target: T7, GFP-tagged BMH1; assay: co-IP, Nb on NHS-agarose beads, lysate of GFP-fusion yeast strain, SDS-PAGE and anti-GFP Western blot
# Source text: After washing, these beads were resuspended in SDS-PAGE loading dye and analyzed on SDS-PAGE (FIG. 8A). Separated proteins were transferred to a PVDF membrane and the Western blot (FIG. 8B) was developed with GFP-specific antibody to confirm the presence of GFP-tagged targets.
# For each target selection of binders in this example, as detailed in Table 2, after 3 rounds of selection by panning using NANEX technology, individual clones were isolated from the enriched sub-library by plating tenfold serial dilutions of the overnight-grown phage-infected E. coli TG1 cells in LB. 96 individual clones were picked and grown in a 96-well plate containing LB supplemented with 100 μg/ml ampicillin. Plasmids containing the Nanobody encoding genes were purified, sequenced and grouped into sequence families (Material and methods). A representative member of each sequence family was selected. Their encoding plasmid was transformed into the E. coli WK6 expression strain to express and purify each Nanobody of interest. […] After washing, these beads were resuspended in SDS-PAGE loading dye and analyzed on SDS-PAGE (as in the Figure specified in Table 2 for each target). […] For each target-specific Nanobody analysed in this way, the co-immunoprecipitation with the EBY100 lysate gives a predominant band corresponding to the expected molecular weight of the target protein. […]
binder,measurement,setting,value
B1,binding result,[1],binds
same,binding result,GFP-tagged SIS1,binds
B2,binding result,[2],binds
same,binding result,GFP-tagged SXM1,binds
B3,binding result,[3],binds
B4,binding result,[4],binds
same,binding result,GFP-tagged BMH1,binds
